Consider two molecules from paper PMC7840129, “Structural basis for heme-dependent NCoR binding to the transcriptional repressor REV-ERBβ” (Science Advances, 2021).

Experiment [1] in a line: heme fluorescence quenching. The conditions noted are these: fig. S2C.
Another experiment concerns REV-ERBβ LBD / NCoR RID. The experiment can be described thus: Chemical cross-linking mass spectrometry (XL-MS). The class given is binding. To be noted: LBD:RID complexes ± heme; DSSO; significant at Padj < 0.05. The method, then: (§1) Apo or heme-bound REV-ERBβ LBD and NCoR RID protein samples were cross-linked in Hepes gel filtration buffer [25 mM Hepes (pH 7.5) at room temperature, 50 mM NaCl, and 0.5 mM TCEP]. Non–cross-linked negative controls were generated using the same procedure without the addition of DSSO (Thermo Fisher Scientific). Samples included 4 μM apo LBD with or without 2 μM RID and 4 μM heme-bound LBD with or without 2 μM RID; complexes were preincubated 1 hour on ice. Reactions were initiated by spiking DSSO in DMSO at a final concentration of 600 μM in 50-μl solutions. The final molar ratio of cross-linker:protein was 100:1. The reactions were incubated at 25°C for 45 min before being quenched by the addition of tris (pH 8.0) to a final concentration of 50 mM. Each cross-link reaction was done in triplicate, and the reaction replicates were pooled after quenching. Samples (10 μl) were loaded for SDS-PAGE analysis with Coomassie staining to confirm the presence of cross-linked protein. The remaining cross-linked and non–cross-linked samples were then acetone-precipitated at −20°C overnight, and the protein was pelleted by centrifugation at 16,000 relative centrifugal force (rcf) for 5 min at 4°C. After decanting, the pellets were dried for 15 min at room temperature before being resuspended in 12.5 μl of resuspension buffer [50 mM ammonium bicarbonate and 8 M urea (pH 8.0)]. […]

Experiment [2] has as its system REV-ERB LBD interaction with NCoR ID motif peptides. The experiment can be described thus: fluorescence-based peptide binding assays. To be noted: fig. S2A; authors attribute it to heme quenching artifact.
For experiment [3] the test system is unchanged. The conditions noted are these: REV-ERBs; cited from earlier work. An excerpt: The iron-centered porphyrin heme has been identified as the endogenous REV-ERB ligand ([7], [8]). […] Structural data would help establish that heme directly produces a REV-ERB LBD conformation that enhances NCoR binding. However, published biochemical and structural studies contradict cell-based evidence ([7]–[11]).

The next experiment deals with REV-ERBβ LBD. The experiment can be described thus: DSSO chemical cross-linking, SDS-PAGE. The conditions noted are these: LBD-only samples, 600 μM DSSO, 25°C, 45 min. The class given is binding, human. The method, then: To further support this stoichiometry, we performed chemical cross-linking analysis of apo or heme-bound LBD ± RID using DSSO (disuccinimidyl sulfoxide), a cross-linker that cross-links lysine residues as well as serine, threonine, and tyrosine residues (fig. S9, A and B).
as §1, with “protein.” for “protein. The remaining cross-linked and non–cross-linked samples were then acetone-precipitated at −20°C overnight, and the protein was pelleted by centrifugation at 16,000 relative centrifugal force (rcf) for 5 min at 4°C. After decanting, the pellets were dried for 15 min at room temperature before being resuspended in 12.5 μl of resuspension buffer [50 mM ammonium bicarbonate and 8 M urea (pH 8.0)].”

The target in experiment [4] is T1, NCoR ID2 peptide (not fully specified; N-terminal amidation and C-terminal acetylation (so in the source)).
T1 construct: source: synthetic peptide, bought: LifeTein
T1 peptide: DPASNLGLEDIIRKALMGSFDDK
The experiment in a line: ITC; apo LBD (500 μM, syringe) titrated into ID peptide (50 μM, cell); 25°C; 20 mM Hepes pH 7.4, 50 mM KCl, 0.5 mM EDTA, 5 mM TCEP; A + B ↔ AB model in SEDPHAT. The conditions noted are these: both partners purified. A general note: In ITC the heat of successive injections is recorded.

In experiment [5] the target is T2, NCoR ID1 peptide (not fully specified; N-terminal amidation and C-terminal acetylation (so in the source)).
T2 construct: source: synthetic peptide, bought: LifeTein
T2 peptide: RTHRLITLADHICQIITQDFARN
Described as above. To be noted: both partners purified.

Experiment [6] addresses T3, mouse NCoR receptor interaction domain (residues 1942 to 2208 in the X50 splice variant), wild type (mouse).
T3 chain: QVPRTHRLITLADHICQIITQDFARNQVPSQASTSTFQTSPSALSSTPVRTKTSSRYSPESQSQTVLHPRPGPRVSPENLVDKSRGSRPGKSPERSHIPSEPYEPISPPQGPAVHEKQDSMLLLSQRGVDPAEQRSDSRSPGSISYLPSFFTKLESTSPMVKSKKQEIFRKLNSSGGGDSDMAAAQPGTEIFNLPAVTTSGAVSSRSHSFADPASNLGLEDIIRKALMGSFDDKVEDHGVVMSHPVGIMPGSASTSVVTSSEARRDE
The experiment can be described thus: ITC; heme-bound LBD (300 μM, syringe) titrated into RID construct (15 μM, cell), 4 molar equivalents; 25°C; Hepes assay buffer; WT RID fit to A + B ↔ AB. The conditions noted are these: both partners purified.

In experiment [7] the target is T1, NCoR ID2 peptide. The experiment in a line: ITC; heme-bound LBD (500 μM with 1.05 molar equivalents of heme, syringe) titrated into ID peptide (50 μM, cell); 25°C; 20 mM Hepes pH 7.4, 50 mM KCl, 0.5 mM EDTA, 5 mM TCEP; A + B ↔ AB model in SEDPHAT. The conditions noted are these: both partners purified.
Experiment [8] has as its target T2, NCoR ID1 peptide. Described as above. To be noted: both partners purified.
In experiment [9] the target is T3, mouse NCoR receptor interaction domain …. The experiment can be described thus: ITC; apo LBD (300 μM, syringe; for WT RID 2 × 20 injections of 150 μM) titrated into RID construct (15 μM, cell); 25°C; Hepes assay buffer; WT RID fit to two nonsymmetric sites, microscopic K model; ΔID2 fit to A + B ↔ AB. The conditions noted are these: both partners purified.
The target is the same in experiment [10]. Described as above. The conditions noted are these: both partners purified.
Experiment [11] addresses T4, mouse NCoR RID ΔID2 mutant (mouse).
T4 chain: T3 chain with L219T, I222T, I223T
The experiment is described as above. To be noted: both partners purified.

Experiment [12] addresses T3, mouse NCoR receptor interaction domain …. The experiment can be described thus: ITC; heme-bound LBD (300 μM, syringe) titrated into RID construct (15 μM, cell), 4 molar equivalents; 25°C; Hepes assay buffer; WT RID fit to A + B ↔ AB. The conditions noted are these: both partners purified.

Changes are numbered by the printed parent chain.

On to `C=CC1=C(C)c2cc3[n-]c(cc4[n-]c(cc5nc(cc1n2)C(C)=C5C=C)c(C)c4CCC(=O)O)c(CCC(=O)O)c3C.[Fe+2]` [heme], for which the “heme quenching of fluorophores” value in [1] is given as “quenches fluorophores across a broad range of emissions”. For the same molecule, the “effect of heme on cross-links” value in the experiment with REV-ERBβ LBD / NCoR RID is “reduced LBD-LBD and LBD-RID cross-links, particularly for residues in the AF-2 surface”. The “effect of heme on ID peptide interaction in fluorescence-based assays” value in [2] is on record as “dose-dependently reduces REV-ERB LBD interaction with peptides derived from NCoR ID motifs”. In experiment [3], the “displacement of NCoR ID peptides in fluorescence-based biochemical assays” value is on record as “dose-dependently displace NCoR interaction domain (ID) peptides from the REV-ERBs”. For the same molecule, the “LBD dimer band by cross-linking SDS-PAGE, effect of heme” value in the experiment on REV-ERBβ LBD is on record as “weak dimer band in LBD-only samples that was unchanged by heme”.

B1: human REV-ERBβ ligand-binding domain (residues 381 to 579) (domain or fragment, UniProt Q14995 381-579, looked up)
chain: HLVCPMSKSPYVDPHKSGHEIWEEFSMSFTPAVKEVVEFAKRIPGFRDLSQHDQVNLLKAGTFEVLMVRFASLFDAKERTVTFLSGKKYSVDDLHSMGAGDLLNSMFEFSEKLNALQLSDEEMSLFTAVVLVSADRSGIENVNSVEALQETLIRALRTLIMKNHPNEASIFTKLLLKLPDLRSLNNMHSEELLAFKVHP
notes: cloned into pET46; Used ligand-free (apo) or loaded with heme (a small molecule; 1.05 to 2 molar equivalents); the two states are told apart by the assays; also called REV-ERBβ LBD; LBD; source: E. coli BL21(DE3), purified (IMAC, 3C protease cleavage, size exclusion); 15N-labelled in M9 minimal media for NMR; not shown: 6xHis, N-terminal, cleaved
In the case of B1, the dH in the experiment with NCoR ID2 peptide [4] is -40.6 kJ/mol; with NCoR ID1 peptide [5], -32.2 kJ/mol; with NCoR ID2 peptide [7] it was 12.6 kJ/mol; with NCoR ID1 peptide [8], 7.11 kJ/mol; in experiment [11], -39.3 kJ/mol; in experiment [12], 7.11 kJ/mol. The stoichiometry N (usually a count of units in the complex or per binding partner) in experiment [6] is around 2 LBD per RID; in experiment [9], 2 LBD per RID. For the same molecule, the “KD site 1” value in experiment [10] came out at 0.012 µM. For the same molecule, in experiment [10], the “KD site 2” value was found to be 0.74 µM. Also, in experiment [10], the “dH site 1” value was -34.7 kJ/mol. For the same molecule, the “dH site 2” value in experiment [10] stood at 13.4 kJ/mol.
